Source: article PMC5348903

What was measured:
BST2 (WT BST2 expressor) = BST2 (WT BST2 expressor) (UniProt Q10589); experiment: co-immunoprecipitation (anti-BST2 Ab pull-down, Western blot densitometry); settings: HEK293T cells co-transfected with proviral construct and BST2 expressor; parent: 100
[1] = molecular target: short isoform of BST2, Q10589-2; experiment: co-immunoprecipitation (Western blot densitometry); settings: HEK293T cells co-transfected with proviral construct and expressor of the short isoform of BST2; parent: 100
short isoform of BST2, Q10589-2, sequence (Q10589 13-161): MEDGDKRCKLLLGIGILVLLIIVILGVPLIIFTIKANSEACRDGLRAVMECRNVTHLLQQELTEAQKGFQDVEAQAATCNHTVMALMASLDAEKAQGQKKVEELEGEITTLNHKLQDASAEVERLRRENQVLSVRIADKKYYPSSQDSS

Row | Substance | percent of parent (% BST2 binding (relative to WT)) (BST2 (WT BST2 expressor)) | percent of parent (% BST2 binding (relative to WT)) [1]
1 | HIV-1 NL4-3 Vpu, wildtype A10L; A14L; A18L | 14 | 12
2 | HIV-1 NL4-3 Vpu, wildtype E28A; L33A | 24 | 18
3 | HIV-1 NL4-3 Vpu, wildtype E28A; L33A; E59K; L63F | 43 | 31
4 | HIV-1 NL4-3 Vpu, wildtype E59K; L63F | 139 | 144
5 | HIV-1 NL4-3 Vpu, wildtype S52D; S56D | 130 | 111
